B1: HDV Ribozyme (parent)
chain: GGCCGGCAUGGUCCCAGCCUCCUCGCUGGCGCCGGCUGGGCAACAUUCCGAGGGGACCGUCCCCUCGGUAAUGGCGAAUGGGACCCA

Variants of: B1
Test: self-cleavage, relative activity (ratio to wild type); higher = more cleavage; co-transcriptional

Variant | self-cleavage
U27G C75A | 0.0755
C30A C32U | 0.171
U27G G29A | 0.283
G29A C49G | 0.225
G28A C66A | 0.0811
G28A C36A | 0.203
G28A C36U | 0.0811
G28C C36A | 0.0462
G28U C33G | 0.212
G28U G52C | 0.154
G29U C48U | 0.0959
U27C G74C | 0.383
U27C G74U | 0.332
G29C A43G | 0.0692
U27G G82U | 0.095
U27G G82C | 0.237
U27G G38U | 0.133
U27G G38C | 0.0692
G29C C48G | 0.095
G29C C30A | 0.156
U27C U69G | 0.712
G28U G29U | 0.107
G28C A78G | 0.26
G28C G81U | 0.0639

Variant | self-cleavage
U27G G34U | 0.538
G28A U72G | 0.107
G29C A42C | 0
G28A C75G | 0
G28A C75U | 0.0563
G29C G52U | 0
G28A A71G | 0.0831
G29C G76U | 0.119
G29C G76C | 0.0386
G29A U47C | 0.16
G29C A77G | 0.135
G28C G50A | 0.151
G28U C85A | 0.203
G29C C36A | 0.0297
G28A G53C | 0.0831
G28A G53A | 0.02
U27C G76C | 1.21
G29C A51U | 0.0308
G29U U47C | 0.19
G28A C84U | 0.0744
G28U A83C | 0.0811
C30A C63A | 0.481
G29A A87U | 0.155
G29A A87G | 0.135

Variant | self-cleavage
G29A A87C | 0.0602
G28C G59C | 0.212
G28C U60G | 0
G28C U60A | 0.104
G29A G74A | 0.0773
G29C G81U | 0
G29A C62G | 0.169
U27G U72C | 0.32
G28A G54C | 0.237
U27C U65C | 0.798
C30A C48G | 0.467
U27G G74A | 0.229
G28U A87G | 0.0817
G28U A87U | 0.116
U27C G35U | 0.302
G28U C48G | 0.161
G29C C85A | 0.104
G29C C85G | 0.0978
G28A U37A | 0.0773
U27G C61U | 0.831
G29C G74U | 0
G29C G74A | 0.0733
G28C C30A | 0
G28C C30G | 0.101

Variant | self-cleavage
G28A G39C | 0.106
G28A G39A | 0.187
G28C A43G | 0.0573
G28C A43C | 0.0573
G28A A43G | 0.0739
G28A A43U | 0.0241
G29U G35A | 0.0744
G29U G35U | 0.058
G28A A87U | 0.0932
U27C G59U | 0.76
G29C C64A | 0.0755
G29C C64G | 0.095
G28C C61G | 0.158
G28C C61A | 0.0755
G29U C44U | 0.104
G29A C84G | 0.102
U27G G80A | 0.533
G29A C66G | 0.204
G29C C86G | 0.133
G29A G76U | 0.428
G29A G76A | 0.328
G28C G31U | 0.244
G29A C85A | 0.17
U27G A78U | 0.0831

Variant | self-cleavage
G28A A77G | 0.111
G28A U79C | 0.0542
G28U A43U | 0.0615
G28A A56U | 0.111
G28A A56C | 0
G28A G31A | 0.101
G28C A77C | 0.229
G28A C63U | 0.107
G29C U46A | 0.178
G28C C44U | 0
G28C C44A | 0.0475
C30A A70U | 0.62
G28C A51G | 0.0723
G28C A51C | 0
G29C C32G | 0.0639
G28C G39U | 0.125
U27G U79A | 0.462
U27G U79G | 0.427
G29A G31U | 0.0272
G29A G31C | 0.154
G29A G31A | 0.0723
G29U G53A | 0.0432
U27G C64A | 0.705
U27G G55C | 0.779

Variant | self-cleavage
G29A U69G | 0.0475
G29A U69A | 0.172
U27G C44G | 0.598
G29A G73A | 0.143
G29A G73C | 0.0639
G29U A77G | 0.178
G28U G40A | 0.104
G28U G34A | 0.0496
G28C G38C | 0.0426
G28C G38U | 0.162
G29U G52A | 0.168
G28A C86G | 0.0678
U27G C49A | 0.886
G29A C86A | 0.155
G29A A56U | 0.111
G28U G38U | 0.14
G28C C57U | 0.0277
G28C A71U | 0.0426
G28U C32A | 0.0496
G29U G38A | 0.0656
G29U G38C | 0.0386
G28A A42C | 0.128
G28A A42U | 0.0723
G28A C61A | 0.0791

Variant | self-cleavage
G28A C61G | 0.133
G29A U72C | 0.0852
G29A U72G | 0.0923
U27G C84G | 0.378
U27G C84U | 0.612
U27G C84A | 0.831
G28A | 0.0977
G28C | 0.0814
G28U | 0.108
U27G C48U | 0.942
U27G C48A | 0.72
G28U U65A | 0.0339
U27G G39C | 0.0723
U27G G53U | 0.923
G29U U37G | 0.0723
G29A G80U | 0.0283
U27G A71G | 0.875
U27G A71U | 0.598
U27G C41U | 0.831
G28U C63G | 0.262
G28U C63A | 0.0978
G28A C30G | 0.117
G29C U69A | 0.162

— the RNAGym collection of RNA variant scans (doi:10.7554/elife.80360)
